{
  "source": "patent US7977317B2",
  "about": "“Compositions and methods for modulating blood-brain barrier transport” (Raptor Pharmaceutical Inc., priority 2001, dated 2011)",
  "key": {"BBCEC monolayers": {"tested_on": "BBCEC monolayers", "assay": "Transcytosis across BBCEC monolayers (in vitro BBB model)", "format": "cell-based, bovine", "from_the_text": "FIG. 10 assesses the ability of several agents to interfere with p97 transyctosis. FIG. 10a, transcytosis of I125-P97 was compared in the presence of cold p97 (5 micromolar), Lf (5 micromolar), and Tf (5 micromolar). […] FIG. 10c, RAP, a known poly-peptide inhibitor of the LDL-Receptor family was applied to the cells (25 micrograms/ml).\nFIG. 11 examines the accumulation and transcytosis of p97. FIG. 11a, of [^125I]-p97, [^125I]-BSA and [^125I]-holo-transferrin one hour after i.v. injection. The radioactivity in brain was compared between the three compounds. (n=3); FIG. 11b, Accumulation of p97 and transferrin into the mouse brain parenchyma. In situ brain perfusion was performed with human [^125I]-p97 or [^125I]-holo-transferrin at a final concentration of 10 nM via a catheter inserted in the right common carotid artery. The volume of distribution (VD) of [^125I]-proteins were obtained in the whole brain homogenate (white bars), in brain capillaries (solid bars) and in brain parenchyma (hatched bars) after isolation of the right hemisphere and capillary depletion. Results were obtained for p97 (n=10) and for holo-transferrin (n=6); FIG. 11c, Transcytosis of p97 across BBCEC monolayers. Transcytosis experiments were performed 37° C. (open circles) and 4° C. (closed circles) with BBCEC monolayers. [^125I]-p97 (1 mg/ml) was added to the upper side of the cell-covered filter. One representative experiment is shown (n=4); FIG. 11d, Preferential transport of p97 across the BBCEC monolayers. Apical-to-basal and basal-to-apical transport of [^125I]-p97 (25 nM) was measured for 2 hrs at 37° C. At the end of the experiment, [^125I]-p97 was assessed in the lower or upper chambers of each well by TCA precipitation (n=4).\nFIG. 13 illustrates the transcytosis and accumulation of p97 and transferrin in BBCEC monolayers. FIG. 13a, Transcytosis experiments were performed at 37° C. (solid bars) or 4° C. (white bars). [^125I]-p97 or bovine [^125I]-holo-transferrin (1 mg/ml) was added to the upper side of the cell-covered filter. At the end of the experiment, radiolabelled proteins were measured in the lower chamber of each well by TCA precipitation (n=4). Controls were also performed at 37° C. with denatured [^125I]-p97 or bovine [^125I]-holo-transferrin boiled for 30 min (grey bars) (n=2); FIG. 13b, Biospecific interaction analysis was performed with native or boiled p97 for the indicated times. MAb L235 (5 μg) was immobilized on a sensor chip (SM5) using standard procedures incorporating NHS, EDC and ethanolamine. Native and boiled p97 (5 to 30 min) diluted at 1 mg/ml in Ringer/Hepes was cooled and injected into the BIAcore. The surface plasmon resonance response obtained for native p97 and boiled p97 was plotted (in relative units (RU)) as a function of time; FIG. 13c, The accumulation of both proteins into BBEC cells were also measured. Briefly, after incubation at 37° C. (solid bars) or 4° C. (white bars) with either [^125I]-protein, cells were washed four times with cold PBS. Accumulation of both denatured proteins (grey bars) was also measured at 37° C. Filters were then removed, and the radioactivity associated with the cells was quantified (n=3).\nFIG. 14 illustrates the stability of p97 and integrity of the BBCEC monolayers following p97 transcytosis. FIG. 14a, Transcytosis experiments were performed at 37° C. and 4° C. by adding p97 (1 mg/ml) to the upper compartment. At the end of the experiment, 50 μl from each lower chamber was used for SDS-polyacrylamide gel electrophoresis. After electrophoresis, the gels were stained with Coomassie Blue. A standard curve was also made with known amounts of recombinant p97 (0-2 μg); FIG. 14b. The gels were dried and scanned to quantify the amount of intact p97 that crossed the BBCEC monolayers at 37° C. and 4° C. (n=3); FIG. 14c, Effect of p97 on sucrose permeability of BBCE cell monolayers co-cultured with astrocytes. […]"}, "LRP1B": {"tested_on": "LRP1B", "assay": "RT-PCR after p97 and RAP treatments in U-87 cells: LRP1B", "format": "cell-based, human", "conditions": "RT-PCR", "procedure": "FIG. 34. Effect of p97 and RAP treatments in U-87 cells. A. Cells (2×10^5) were plated onto six-multiwell microplates and grown at 37° C. under 5% CO2 with optimal culture medium supplemented with serum for 4 days. Treatment was performed in serum free medium for 72 hours. RNA isolation and RT-PCR were performed as described in the Examples. B. LRP/LRP1B was immunodetected in cells lysates as described in the Examples. […] (N=2 for p97 treatment), (n=1 for RAP treatment)\nFIG. 35. Effect of p97 and RAP treatments in U-87 cells (RT-PCR). Cells (2×10^5) were plated onto six-multiwell microplates and grown at 37° C. under 5% CO2 with optimal culture medium supplemented with serum for 4 days. Treatment was performed in serum free medium for 72 hours. RNA isolation and RT-PCR were performed as described in the Examples. The amplified PCR products were electrophoresed on a 2% agarose gel and visualized under ultraviolet light. (n=2 for p97), (n=1 for RAP)\nRNA extraction. Cells in six-wells plate or in 75 cm^2 plastic tissue culture flasks were grown at 37° C. under 5% CO2 with optimal culture medium to 80-90% confluence. Total cellular RNA was preserved in Trizol (Gibco BRL, Burlington, ON). The solution are frozen at −80° C. until extraction. The solution was defroze and mixed with 5:1 chloroform for 3 minutes at room temperature. The suspension was centrifugated at 12000 g at 4° C. […]"}, "LDL-R": {"target": "LDL-R (Homo sapiens, UniProt P01130)", "conditions": "Tables 1-3; cited from earlier work"}, "Megalin": {"target": "Megalin (Homo sapiens, UniProt P98164)", "sequence (P98164 26-4655, species assumed)": "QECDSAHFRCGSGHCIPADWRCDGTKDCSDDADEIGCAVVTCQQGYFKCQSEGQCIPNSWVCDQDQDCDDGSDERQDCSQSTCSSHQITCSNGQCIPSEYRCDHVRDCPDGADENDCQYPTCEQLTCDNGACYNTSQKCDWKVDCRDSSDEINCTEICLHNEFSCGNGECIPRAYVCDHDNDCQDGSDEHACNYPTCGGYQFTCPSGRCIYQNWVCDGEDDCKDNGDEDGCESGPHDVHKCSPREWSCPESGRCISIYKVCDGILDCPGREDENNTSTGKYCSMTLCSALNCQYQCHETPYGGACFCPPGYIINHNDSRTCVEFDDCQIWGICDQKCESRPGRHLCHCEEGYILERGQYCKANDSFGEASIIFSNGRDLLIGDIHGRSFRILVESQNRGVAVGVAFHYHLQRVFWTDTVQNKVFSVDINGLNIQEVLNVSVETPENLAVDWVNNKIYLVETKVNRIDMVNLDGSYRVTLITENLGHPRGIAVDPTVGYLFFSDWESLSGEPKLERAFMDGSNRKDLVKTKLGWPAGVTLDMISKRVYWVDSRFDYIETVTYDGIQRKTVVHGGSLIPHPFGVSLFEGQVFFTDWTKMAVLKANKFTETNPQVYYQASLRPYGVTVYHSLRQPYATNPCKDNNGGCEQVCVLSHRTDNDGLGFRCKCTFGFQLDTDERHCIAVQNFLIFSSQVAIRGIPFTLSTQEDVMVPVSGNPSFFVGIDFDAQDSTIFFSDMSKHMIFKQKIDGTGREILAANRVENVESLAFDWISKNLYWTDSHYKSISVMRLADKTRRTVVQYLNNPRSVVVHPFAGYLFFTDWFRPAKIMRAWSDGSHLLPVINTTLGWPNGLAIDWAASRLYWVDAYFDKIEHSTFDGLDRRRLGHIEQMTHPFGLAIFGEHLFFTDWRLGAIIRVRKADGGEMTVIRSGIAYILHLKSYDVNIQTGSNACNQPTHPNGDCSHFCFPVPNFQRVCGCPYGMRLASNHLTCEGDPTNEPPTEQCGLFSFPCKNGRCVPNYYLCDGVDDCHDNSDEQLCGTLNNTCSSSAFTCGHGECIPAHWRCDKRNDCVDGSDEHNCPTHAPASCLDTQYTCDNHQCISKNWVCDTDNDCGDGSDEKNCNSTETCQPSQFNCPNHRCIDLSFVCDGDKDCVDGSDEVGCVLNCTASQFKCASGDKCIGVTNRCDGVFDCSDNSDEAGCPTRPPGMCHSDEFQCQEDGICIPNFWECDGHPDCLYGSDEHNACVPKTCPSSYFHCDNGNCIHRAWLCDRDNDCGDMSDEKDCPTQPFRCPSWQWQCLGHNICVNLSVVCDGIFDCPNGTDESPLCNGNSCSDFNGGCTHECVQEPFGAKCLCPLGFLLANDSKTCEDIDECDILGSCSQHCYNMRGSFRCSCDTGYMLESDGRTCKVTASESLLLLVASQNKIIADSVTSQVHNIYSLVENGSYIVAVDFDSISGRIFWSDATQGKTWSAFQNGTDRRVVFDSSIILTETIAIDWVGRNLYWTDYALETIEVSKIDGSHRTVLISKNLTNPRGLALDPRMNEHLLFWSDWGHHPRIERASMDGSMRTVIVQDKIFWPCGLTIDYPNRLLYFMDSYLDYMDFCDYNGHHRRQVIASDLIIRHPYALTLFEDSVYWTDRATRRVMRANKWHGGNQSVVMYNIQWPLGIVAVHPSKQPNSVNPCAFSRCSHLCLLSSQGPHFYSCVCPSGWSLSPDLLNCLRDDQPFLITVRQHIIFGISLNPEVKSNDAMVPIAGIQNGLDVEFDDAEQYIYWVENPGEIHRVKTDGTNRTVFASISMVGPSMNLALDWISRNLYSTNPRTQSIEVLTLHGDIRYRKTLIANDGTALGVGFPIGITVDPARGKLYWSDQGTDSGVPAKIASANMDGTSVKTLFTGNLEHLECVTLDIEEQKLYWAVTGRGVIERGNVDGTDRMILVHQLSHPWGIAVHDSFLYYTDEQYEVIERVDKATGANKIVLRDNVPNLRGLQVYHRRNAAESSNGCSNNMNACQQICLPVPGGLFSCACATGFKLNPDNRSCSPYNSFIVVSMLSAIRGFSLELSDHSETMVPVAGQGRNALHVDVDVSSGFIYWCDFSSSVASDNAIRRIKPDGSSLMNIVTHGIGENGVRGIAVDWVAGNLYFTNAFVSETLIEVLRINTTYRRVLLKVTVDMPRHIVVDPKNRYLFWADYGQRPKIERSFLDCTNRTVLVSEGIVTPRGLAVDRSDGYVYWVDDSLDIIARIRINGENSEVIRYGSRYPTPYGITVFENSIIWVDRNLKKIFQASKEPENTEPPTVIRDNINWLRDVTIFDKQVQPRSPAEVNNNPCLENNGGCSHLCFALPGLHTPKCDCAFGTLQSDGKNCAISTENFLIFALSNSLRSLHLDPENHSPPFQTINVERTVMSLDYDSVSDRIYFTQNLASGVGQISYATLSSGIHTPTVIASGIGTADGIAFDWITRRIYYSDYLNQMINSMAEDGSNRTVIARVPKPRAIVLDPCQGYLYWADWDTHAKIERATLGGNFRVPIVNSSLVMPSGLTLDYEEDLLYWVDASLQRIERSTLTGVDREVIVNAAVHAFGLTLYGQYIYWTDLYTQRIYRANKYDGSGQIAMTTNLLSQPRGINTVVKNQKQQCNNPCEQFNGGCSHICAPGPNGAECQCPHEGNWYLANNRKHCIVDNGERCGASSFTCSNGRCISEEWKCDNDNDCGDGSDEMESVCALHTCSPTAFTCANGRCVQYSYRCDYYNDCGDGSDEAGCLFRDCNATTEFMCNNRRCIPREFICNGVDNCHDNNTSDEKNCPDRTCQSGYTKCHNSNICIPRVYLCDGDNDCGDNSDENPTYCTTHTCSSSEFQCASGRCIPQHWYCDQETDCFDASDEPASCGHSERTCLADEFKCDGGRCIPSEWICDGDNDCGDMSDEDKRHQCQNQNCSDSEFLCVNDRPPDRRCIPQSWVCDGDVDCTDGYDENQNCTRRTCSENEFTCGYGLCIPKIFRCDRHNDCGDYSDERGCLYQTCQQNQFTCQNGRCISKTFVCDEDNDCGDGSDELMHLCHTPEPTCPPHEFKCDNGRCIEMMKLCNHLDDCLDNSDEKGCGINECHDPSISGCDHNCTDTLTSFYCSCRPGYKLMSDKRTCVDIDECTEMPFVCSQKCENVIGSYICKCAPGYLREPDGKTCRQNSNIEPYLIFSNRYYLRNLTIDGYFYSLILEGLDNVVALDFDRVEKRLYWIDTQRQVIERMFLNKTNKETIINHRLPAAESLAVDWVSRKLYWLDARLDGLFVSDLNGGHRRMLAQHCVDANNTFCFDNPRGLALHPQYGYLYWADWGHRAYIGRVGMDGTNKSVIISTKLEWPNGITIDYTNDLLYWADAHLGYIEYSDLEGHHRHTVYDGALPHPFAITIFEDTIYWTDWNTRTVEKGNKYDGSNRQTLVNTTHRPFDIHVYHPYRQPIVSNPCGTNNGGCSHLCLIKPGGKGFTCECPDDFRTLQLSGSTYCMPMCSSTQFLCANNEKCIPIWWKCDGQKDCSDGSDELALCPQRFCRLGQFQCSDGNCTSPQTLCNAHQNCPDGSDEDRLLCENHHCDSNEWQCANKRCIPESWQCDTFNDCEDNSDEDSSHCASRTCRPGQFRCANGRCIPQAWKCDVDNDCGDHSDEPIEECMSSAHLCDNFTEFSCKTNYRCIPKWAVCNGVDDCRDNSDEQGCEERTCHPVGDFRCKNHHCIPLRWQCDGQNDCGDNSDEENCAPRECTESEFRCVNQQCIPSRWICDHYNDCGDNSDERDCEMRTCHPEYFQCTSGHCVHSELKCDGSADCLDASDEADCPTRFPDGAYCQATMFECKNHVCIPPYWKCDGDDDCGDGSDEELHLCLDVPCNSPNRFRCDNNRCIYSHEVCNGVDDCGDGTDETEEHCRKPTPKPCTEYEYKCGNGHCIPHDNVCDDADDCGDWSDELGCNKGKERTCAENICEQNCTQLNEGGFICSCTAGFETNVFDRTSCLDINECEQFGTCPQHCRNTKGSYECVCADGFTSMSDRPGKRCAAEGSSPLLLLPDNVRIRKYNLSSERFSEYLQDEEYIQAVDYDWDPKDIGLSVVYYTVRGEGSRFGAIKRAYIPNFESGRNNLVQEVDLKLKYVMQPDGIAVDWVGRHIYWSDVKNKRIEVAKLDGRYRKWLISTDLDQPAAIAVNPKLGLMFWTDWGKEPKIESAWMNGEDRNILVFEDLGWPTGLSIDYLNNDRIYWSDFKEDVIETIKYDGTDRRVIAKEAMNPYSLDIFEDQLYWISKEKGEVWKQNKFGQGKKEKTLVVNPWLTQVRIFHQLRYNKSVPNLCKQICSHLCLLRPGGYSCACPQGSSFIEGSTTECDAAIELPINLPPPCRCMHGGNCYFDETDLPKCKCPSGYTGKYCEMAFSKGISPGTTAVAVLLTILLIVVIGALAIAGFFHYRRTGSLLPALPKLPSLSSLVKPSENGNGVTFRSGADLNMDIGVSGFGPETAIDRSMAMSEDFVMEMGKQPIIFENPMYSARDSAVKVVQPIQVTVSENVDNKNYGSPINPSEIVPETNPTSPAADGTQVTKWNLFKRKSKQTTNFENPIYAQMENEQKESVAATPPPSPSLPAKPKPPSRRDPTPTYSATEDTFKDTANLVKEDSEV", "conditions": "Tables 1-3; cited from earlier work"}, "VLDL-R": {"target": "VLDL-R (Homo sapiens, UniProt P98155)", "conditions": "Tables 1-3; cited from earlier work"}, "LRP": {"target": "LRP (Homo sapiens, UniProt Q07954)", "conditions": "Tables 1-3; cited from earlier work"}},
  "data": [
    {"substance": "RAP: receptor-associated protein, a protein chaperone that regulates LRP; polypeptide inhibitor of the LDL-Receptor family", "values": [
      {"measurement": "Effect on transcytosis of p97", "setting": "BBCEC monolayers; RAP 25 micrograms/ml (FIG. 10c)", "result": "significantly inhibited"},
      {"measurement": "Inhibition of p97 transcytosis by LRP ligands", "setting": "BBCEC monolayers; RAP (0.6 μM), BSA (5 μM), 2 h at 37° C. (FIG. 17A)", "result": "inhibition"},
      {"measurement": "Reduction of the initial rate of [125I]-p97 transport across BBCEC monolayers", "setting": "BBCEC monolayers; recombinant RAP 25 μg/ml (FIG. 16b)", "result": "more than 50%"},
      {"measurement": "Effect of RAP on the p97 effect on receptor expression", "setting": "LRP1B", "result": "appears to antagonize the effect of p97"},
      {"measurement": "Binding to LDL-R", "setting": "LDL-R", "result": "Yes"},
      {"measurement": "Binding to Megalin", "setting": "Megalin", "result": "Yes"},
      {"measurement": "Binding to VLDL-R", "setting": "VLDL-R", "result": "Yes"},
      {"measurement": "Binding to LRP", "setting": "LRP", "result": "Yes"}
    ]}
  ]
}
